{"source": "patent CN111320688A", "binders": {"B1": {"name": "TIB12抗体 (antibody, V domains shown)", "VH": "EVQLLESGGGLVQPGGSLRLSCAASGFTFSSQVMSWVRQAPGRGLEWVSVIHTGGSSTYYADSVKGRFTISRDNSKNTVFLHMNSLRVEDTALYYCAKGSAYGDYVEY", "VL": "QSVLTQPPSVSGAPGQRVTISCTGSSSNIGAGYDVHWYQQPPGTAPKLLIYGNNNRPSGVPDRFSGSKSGTSASLAITGLQAEDEADYYCQSYDSSLSGGV"}}, "key": {"[1]": {"target": "登革病毒1-4型、西尼罗河病毒和黄热病毒 (病毒颗粒表面E蛋白)", "test": "cell-based or functional assay"}, "[2]": {"target": "黄病毒属中的登革病毒、寨卡病毒、西尼罗河病毒和黄热病毒的E蛋白"}}, "data": [{"binder": "B1", "values": [{"measurement": "IC50 (中和能力; Vero细胞感染, 流式检测)", "setting": "[1]", "result": "0.04 to 1.31", "unit": "µg/mL"}, {"measurement": "Kd", "setting": "[2]", "result": "0.13 to 0.85", "unit": "nM"}]}]}
